Assay [1] concerns the target T1, human soluble urokinase plasminogen activator receptor (suPAR) (human, UniProt Q03405 23-303, limits assumed).
T1 construct: Column head says only 'human'; also called human suPAR; hsuPAR
The assay can be described thus: BLI (Octet) off-rate screen of scFv clones. (In general: BLI is a label-free optical method that tracks binding on a fibre tip over time.)

In assay [2] the target is T2, cynomolgus soluble urokinase plasminogen activator receptor (suPAR) (cynomolgus, UniProt Q9GK78 23-303, limits assumed).
T2 construct: Column head says only 'cynomologus'; also called cynomolgus suPAR; cynomolgus uPAR
The assay can be described thus: BLI (Octet) off-rate screen of scFv clones.

The source of these data is patent publication US20250215104A1 (WALDEN BIOSCIENCES, published 2025).

T2 sequence (Q9GK78 23-303 limits assumed): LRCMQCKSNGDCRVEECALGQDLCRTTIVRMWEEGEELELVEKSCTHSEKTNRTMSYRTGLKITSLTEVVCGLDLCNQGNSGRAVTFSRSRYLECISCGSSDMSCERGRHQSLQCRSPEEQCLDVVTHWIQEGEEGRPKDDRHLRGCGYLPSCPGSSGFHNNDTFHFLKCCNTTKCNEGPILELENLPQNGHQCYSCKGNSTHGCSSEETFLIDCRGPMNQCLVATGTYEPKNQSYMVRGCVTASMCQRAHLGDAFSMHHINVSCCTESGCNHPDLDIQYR
T1 sequence (Q03405 23-303 limits assumed): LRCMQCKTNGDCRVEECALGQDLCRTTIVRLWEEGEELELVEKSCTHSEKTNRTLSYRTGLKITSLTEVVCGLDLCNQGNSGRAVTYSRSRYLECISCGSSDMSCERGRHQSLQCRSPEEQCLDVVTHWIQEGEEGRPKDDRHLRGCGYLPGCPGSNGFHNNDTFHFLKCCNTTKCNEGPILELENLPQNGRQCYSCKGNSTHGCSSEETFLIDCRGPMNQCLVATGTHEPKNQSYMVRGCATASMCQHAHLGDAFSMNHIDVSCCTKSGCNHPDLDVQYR

B1: suPAR_DB02_E07 (scFv, V domains shown)
VH: QVQLVQSGAEVKKPGASVKVSCKASGYNFNAYYMHWVRQAPGQGLEWMGWIDPHSGGTNYAQKFQGRVTMTRDTSTSTVYMELSSLRSEDTAVYYCARGYDVDWFVYWGQGTLVTVSS
VL: DIQMTQSPSSLSASVGDRVTITCSARSSVSYMYWYQQKPGKAPKLLIYRTSNLASGVPSRFSGSGSGTDFTLTISSLQPEDFATYYCQQYHSYPPTFGGGTKVEIK
notes: scFv clone from phage display
Broadly, the koff is a measure of how fast the partners let go of each other. Read a low koff as a long-lived complex. Consider B1, for which the koff in assay [1] was 0.00392 s⁻¹; in assay [2] it was 0.000177 s⁻¹.

B2: suPAR_DB02_E10 (scFv, V domains shown)
VH: QVQLVQSGAEVKKPGASVKVSCKASGYTFTNYFMHWVRQAPGQGLEWMGWIDHENGNTIYDQKFQGRVTMTRDTSTSTVYMELSSLRSEDTAVYYCARGYDVDWFVYWGQGTLVTVSS
VL: DIQMTQSPSSLSASVGDRVTITCSARSSVSYMYWYQQKPGKAPKLLIYRTSNLASGVPSRFSGSGSGTDFTLTISSLQPEDFATYYCQQYHSYPPTFGGGTKVEIK
notes: scFv clone from phage display
For the molecule B2, the koff was 0.00552 s⁻¹ in assay [1] and 0.000189 s⁻¹ in assay [2].

B3: suPAR_DB02_G02 (scFv, V domains shown)
VH: QVQLVQSGAEVKKPGASVKVSCKASGYTFTRYYMHWVRQAPGQGLEWMGWIDHENGSTIYAQKFQGRVTMTRDTSTSTVYMELSSLRSEDTAVYYCARGYDVDWFVYWGQGTLVTVSS
VL: DIQMTQSPSSLSASVGDRVTITCSARSSVSYMYWYQQKPGKAPKLLIYRTSSLQSGVPSRFSGSGSGTDFTLTISSLQPEDFATYYCQQYHSYPPTFGGGTKVEIK
notes: scFv clone from phage display
For B3, the off-rate (koff) in assay [1] came to 0.00242 s⁻¹; in assay [2] it was 0.000125 s⁻¹.

B4: suPAR_DB02_F05 (scFv, V domains shown)
VH: QVQLVQSGAEVKKPGASVKVSCKASGYTFTGNYMQWVRQAPGQGLEWMGWIDHENGNTIYDQKFQGRVTMTRDTSTSTVYMELSSLRSEDTAVYYCARGYDVDWFVYWGQGTLVTVSS
VL: DIQMTQSPSSLSASVGDRVTITCSARSSVSYMYWYQQKPGKAPKLLIYRTSNLASGVPSRFSGSGSGTDFTLTISSLQPEDFATYYCQQYHSYPPTFGGGTKVEIK
notes: scFv clone from phage display
On to B4, for which the results for the off-rate constant (koff) in assay [1] and in assay [2] were 0.00613 s⁻¹ and 0.000161 s⁻¹, respectively.

B5: suPAR_DB02_F03 (scFv, V domains shown)
VH: QVQLVQSGAEVKKPGASVKVSCKASGYTFTSYYVHWVRQAPGQGLEWMGWIDPEGGSTIYDQKFQGRVTMTRDTSTSTVYMELSSLRSEDTAVYYCARGYDVDWFVYWGQGTLVTVSS
VL: DIQMTQSPSSLSASVGDRVTITCSARSSVSYMYWYQQKPGKAPKLLIYRTSSLQSGVPSRFSGSGSGTDFTLTISSLQPEDFATYYCQQYHSYPPTFGGGTKVEIK
notes: scFv clone from phage display
Regarding B5, the values for the koff in assay [1] and in assay [2] were 0.00504 s⁻¹ and 0.000492 s⁻¹, respectively.

B6: suPAR_DB02_G03 (scFv, V domains shown)
VH: QVQLVQSGAEVKKPGASVKVSCKASGYTFTSYYMHWVRQAPGQGLEWMGWIDPENGNTIYDQKFQGRVTMTRDTSTSTVYMELSSLRSEDTAVYYCARGYDVDWFVYWGQGTLVTVSS
VL: DIQMTQSPSSLSASVGDRVTITCSASQSVSYMYWYQQKPGKAPKLLIYRTSNLASGVPSRFSGSGSGTDFTLTISSLQPEDFATYYCQQYHSYPPTFGGGTKVEIK
notes: scFv clone from phage display
With B6, the koff is 0.00346 s⁻¹ in assay [1] and 0.00025 s⁻¹ in assay [2].

B7: suPAR_DB02_G01 (scFv, V domains shown)
VH: QVQLVQSGAEVKKPGASVKVSCKASGHTFTDYYMHWVRQAPGQGLEWMGWISPNSGGTNYAQKFQGRVTMTRDTSTSTVYMELSSLRSEDTAVYYCARGYDVDWFVYWGQGTLVTVSS
VL: DIQMTQSPSSLSASVGDRVTITCSARSSVSYMYWYQQKPGKAPKLLIYRTSNLASGVPSRFSGSGSGTDFTLTISSLQPEDFATYYCQQYHSYPPTFGGGTKVEIK
notes: scFv clone from phage display
For the molecule B7, the koff was found to be 0.00438 s⁻¹ in assay [1] and 5.19e-05 s⁻¹ in assay [2].

B8: suPAR_DB02_E12 (scFv, V domains shown)
VH: QVQLVQSGAEVKKPGASVKVSCKASGYTFTSNYMHWVRQAPGQGLEWMGWIDHENGNTIYDQKFQGRVTMTRDTSTSTVYMELSSLRSEDTAVYYCARGYDVDWFVYWGQGTLVTVSS
VL: DIQMTQSPSSLSASVGDRVTITCSASQSVSYMYWYQQKPGKAPKLLIYRTSNLASGVPSRFSGSGSGTDFTLTISSLQPEDFATYYCQQYHSYPPTFGGGTKVEIK
notes: scFv clone from phage display
In the case of B8, the koff in assay [1] worked out at 0.00675 s⁻¹; in assay [2], 0.000215 s⁻¹.

B9: suPAR_DB02_G04 (scFv, V domains shown)
VH: QVQLVQSGAEVKKPGASVKVSCKASGHTFTGYYIHWVRQAPGQGLEWMGWIDHENGNTIYDQKFQGRVTMTRDTSTSTVYMELSSLRSEDTAVYYCARGYDVDWFVYWGQGTLVTVSS
VL: DIQMTQSPSSLSASVGDRVTITCSARSSVSYMYWYQQKPGKAPKLLIYRTSNLASGVPSRFSGSGSGTDFTLTISSLQPEDFATYYCQQYHSYPPTFGGGTKVEIK
notes: scFv clone from phage display
B9: the values for the off-rate constant (koff) in assay [1] and in assay [2] were 0.00448 s⁻¹ and 9.86e-05 s⁻¹, respectively.

B10: suPAR_DB02_G08 (scFv, V domains shown)
VH: QVQLVQSGAEVKKPGASVKVSCKASGDTFTSYYMHWVRQAPGQGLEWMGWIDHEGGNTSYEQKFQGRVTMTRDTSTSTVYMELSSLRSEDTAVYYCARGYDVDWFVYWGQGTLVTVSS
VL: DIQMTQSPSSLSASVGDRVTITCSARSSVSYMYWYQQKPGKAPKLLIYRTSNLASGVPSRFSGSGSGTDFTLTISSLQPEDFATYYCQQYHSYPPTFGGGTKVEIK
notes: scFv clone from phage display
Take B10: the koff came out at 0.00395 s⁻¹ in assay [1] and 0.000103 s⁻¹ in assay [2].

B11: suPAR_DB02_H01 (scFv, V domains shown)
VH: QVQLVQSGAEVKKPGASVKVSCKASGYTFTGQYIHWVRQAPGQGLEWMGWIDHSGGSTIYDQKFQGRVTMTRDTSTSTVYMELSSLRSEDTAVYYCAGGYDVDWFVYWGQGTLVTVSS
VL: DIQMTQSPSSLSASVGDRVTITCSARSSVSYMYWYQQKPGKAPKLLIYRTSSLASGVPSRFSGSGSGTDFTLTISSLQPEDFATYYCQQYHSYPPTFGGGTKVEIK
notes: scFv clone from phage display
In the case of B11, the koff turned out to be 0.00315 s⁻¹ in assay [1] and 0.000218 s⁻¹ in assay [2].

B12: suPAR_DB02_H05 (scFv, V domains shown)
VH: QVQLVQSGAEVKKPGASVKVSCKASGYFFTAYYMHWVRQAPGQGLEWMGWIDPENGNTIYDQKFQGRVTMTRDTSTSTVYMELSSLRSEDTAVYYCARGYDVDWFVYWGQGTLVTVSS
VL: DIQMTQSPSSLSASVGDRVTITCSARSSVSYMYWYQQKPGKAPKLLIYRTSNLASGVPSRFSGSGSGTDFTLTISSLQPEDFATYYCQQYHSYPPTFGGGTKVEIK
notes: scFv clone from phage display
Consider B12, for which the figures for the koff in assay [1] and in assay [2] were 0.00442 s⁻¹ and 0.00021 s⁻¹, respectively.

B13: suPAR_DB02_F10 (scFv, V domains shown)
VH: QVQLVQSGAEVKKPGASVKVSCKASGYTFTTYYMHWVRQAPGQGLEWMGWIDPEGGNTSYDQKFQGRVTMTRDTSTSTVYMELSSLRSEDTAVYYCARGYDVDWFVYWGQGTLVTVSS
VL: DIQMTQSPSSLSASVGDRVTITCSARSSVSYMYWYQQKPGKAPKLLIYRTSNLASGVPSRFSGSGSGTDFTLTISSLQPEDFATYYCQQYHSYPPTFGGGTKVEIK
notes: scFv clone from phage display
Take B13: the koff in assay [1] came out at 0.00106 s⁻¹; in assay [2], 0.000375 s⁻¹.

B14: suPAR_DB02_G07 (scFv, V domains shown)
VH: QVQLVQSGAEVKKPGASVKVSCKASGYTFTSYYMHWVRQAPGQGLEWMGWIDPENGSTIYDQKFQGRVTMTRDTSTSTVYMELSSLRSEDTAVYYCARGYDVDWFVYWGQGTLVTVSS
VL: DIQMTQSPSSLSASVGDRVTITCSASQSVSYMYWYQQKPGKAPKLLIYRTSNLASGVPSRFSGSGSGTDFTLTISSLQPEDFATYYCQQYHSYPPTFGGGTKVEIK
notes: scFv clone from phage display
Consider B14, for which the koff was found to be 0.00367 s⁻¹ in assay [1] and 0.000286 s⁻¹ in assay [2].

B15: suPAR_DB02_F02 (scFv, V domains shown)
VH: QVQLVQSGAEVKKPGASVKVSCKASGYTFTDYYMHWVRQAPGQGLEWMGWIDPENGNTIYDQKFQGRVTMTRDTSTSTVYMELSSLRSEDTAVYYCARGYDVDWFVYWGQGTLVTVSS
VL: DIQMTQSPSSLSASVGDRVTITCSARSSVSYMYWYQQKPGKAPKLLIYRTSNLQSGVPSRFSGSGSGTDFTLTISSLQPEDFATYYCQQYHSYPPTFGGGTKVEIK
notes: scFv clone from phage display
Regarding B15, the koff in assay [1] turned out to be 0.00179 s⁻¹; in assay [2], 0.00048 s⁻¹.

B16: suPAR_DB02_G06 (scFv, V domains shown)
VH: QVQLVQSGAEVKKPGASVKVSCKASGYTFTNYYMHWVRQAPGQGLEWMGWIDHEGGSTIYAQKFQGRVTMTRDTSTSTVYMELSSLRSEDTAVYYCARGYDVDWFVYWGQGTLVTVSS
VL: DIQMTQSPSSLSASVGDRVTITCSARSSISYMYWYQQKPGKAPKLLIYRTSNLASGVPSRFSGSGSGTDFTLTISSLQPEDFATYYCQQYHSYPPTFGGGTKVEIK
notes: scFv clone from phage display
As to B16, the koff in assay [1] was 0.00137 s⁻¹; in assay [2], 0.000132 s⁻¹.

B17: suPAR_DB02_E08 (scFv, V domains shown)
VH: QVQLVQSGAEVKKPGASVKVSCKASGYNIKSYYIHWVRQAPGQGLEWMGWIDHENGNTIYDQKFQGRVTMTRDTSTSTVYMELSSLRSEDTAVYYCAAGYDVDWFVYWGQGTLVTVSS
VL: DIQMTQSPSSLSASVGDRVTITCSARSSVSYMYWYQQKPGKAPKLLIYRTSNLASGVPSRFSGSGSGTDFTLTISSLQPEDFATYYCQQYHSYPPTFGGGTKVEIK
notes: scFv clone from phage display
B17: the figures for the koff in assay [1] and in assay [2] were 0.0031 s⁻¹ and 0.000363 s⁻¹, respectively.

B18: suPAR_DB02_G12 (scFv, V domains shown)
VH: QVQLVQSGAEVKKPGASVKVSCKASGFNIKDYYIHWVRQAPGQGLEWMGWIDPENGSTIYDQKFQGRVTMTRDTSTSTVYMELSSLRSEDTAVYYCARGYDVDWFVYWGQGTLVTVSS
VL: DIQMTQSPSSLSASVGDRVTITCSASSSVSYMYWYQQKPGKAPKLLIYRTSSLQSGVPSRFSGSGSGTDFTLTISSLQPEDFATYYCQQYHSYPPTFGGGTKVEIK
notes: scFv clone from phage display
Regarding B18, the koff in assay [1] worked out at 0.00371 s⁻¹; in assay [2] it was 0.000584 s⁻¹.

B19: suPAR_DB02_H03 (scFv, V domains shown)
VH: QVQLVQSGAEVKKPGASVKVSCKASGYTFTTYYMHWVRQAPGQGLEWMGWIDPEGGSTIYDQKFQGRVTMTRDTSTSTVYMELSSLRSEDTAVYYCARGYDVDWFVYWGQGTLVTVSS
VL: DIQMTQSPSSLSASVGDRVTITCSARSSVSYMYWYQQKPGKAPKLLIYRTSNLASGVPSRFSGSGSGTDFTLTISSLQPEDFATYYCQQYHSYPPTFGGGTKVEIK
notes: scFv clone from phage display
Consider B19, for which the koff in assay [1] was 0.00594 s⁻¹; in assay [2], 0.000524 s⁻¹.
